Assay results from patent US20230151437A1 (Harvard, published 2023).

B1: HaloTag-iPAK4 (other)
chain: MIGTGFPFDPHYVEVLGERMHYVDVGPRDGTPVLFLHGNPTSSYVWRNIIPHVAPTHRCIAPDLIGMGKSDKPDLGYFFDDHVRFMDAFIEALGLEEVVLVIHDWGSALGFHWAKRNPERVKGIAFMEFIRPIPTWDEWPEFARETFQAFRTTDVGRKLIIDQNVFIEGTLPMGVVRPLTEVEMDHYREPFLNPVDREPLWRFPNELPIAGEPANIVALVEEYMDWLHQSPVPKLLFWGTPGVLIPPAEAARLAKSLPNCKAVDIGPGLNLLQEDNPDLIGSEIARWLSTLEISGEPTTSGSEAEDWTAALLNRGRSRQPLVLGDNCFADLVHNWMELPEEFPAAPAVPGPPGPRSPQREPQRVSHEQFRAALQLVVDPGDPRSYLDNFIKIGEGSTGIVCIATVRSSGKLVAVKKMDLRKQQRRELLFNEVVIMRDYQHENVVEMYNSYLVGDELWVVMEFLEGGALTDIVTHTRMNEEQIAAVCLAVLQALSVLHAQGVIHRDIKSDSILLTHDGRVKLSDFGFCAQVSKEVPRRKSLVGTPYWMAPELISRLPYGPEVDIWSLGIMVIEMVDGEPPYFNEPPLKAMKMIRDNLPPRLKNLHKVSPSLKGFLDRLLVRDPAQRATAAELLKHPFLAKAGPPASIVPLMRQNRTR
notes: also called HT-iPAK4; CMV::HT-iPAK4
B2: iPAK4 (fusion of the catalytic domain of the Pak4 kinase and the 38 amino acid iBox domain of its inhibitor Inka1) (other)
chain: MDYKDDDDKSGSEAEDWTAALLNRGRSRQPLVLGDNCFADLVHNWMELPEEFPAAPAVPGPPGPRSPQREPQRVSHEQFRAALQLVVDPGDPRSYLDNFIKIGEGSTGIVCIATVRSSGKLVAVKKMDLRKQQRRELLFNEVVIMRDYQHENVVEMYNSYLVGDELWVVMEFLEGGALTDIVTHTRMNEEQIAAVCLAVLQALSVLHAQGVIHRDIKSDSILLTHDGRVKLSDFGFCAQVSKEVPRRKSLVGTPYWMAPELISRLPYGPEVDIWSLGIMVIEMVDGEPPYFNEPPLKAMKMIRDNLPPRLKNLHKVSPSLKGFLDRLLVRDPAQRATAAELLKHPFLAKAGPPASIVPLMRQNRTR
notes: also called ibox-PAK4cat; CMV::iPAK4

Tests used:
[1] = biological target: B2; test: co-expression in HEK cells; fluorescence imaging of HT-iPAK4 incorporated into iPAK4 assemblies
Procedure: To assess the suitability of iPAK4 assemblies as a recording medium, a detailed characterization of their nucleation and growth was performed. CMV::iPAK4 (90%), CMV::eGFP-iPAK4 (5%), and CMV::HT-iPAK4 (5%) were co-expressed in HEK cells using lentiviral transduction, and JF₆₆₉ was added to the medium to label the HT. Time-lapse video microscopy was recorded over a 13 hour interval starting 1 hour after transfection, and over 43 hours starting 20 hours after transfection. The fluorescence of the cytoplasm and the growth of individual assemblies was then tracked. Initially, green (eGFP) and red (HT-JF₆₆₉) fluorescence accumulated in the cytoplasm. Upon nucleation, assemblies grew quickly (˜0.5 μm/min) at first, while the cytoplasmic fluorescence dropped. This phase typically lasted approximately 1 h. The assemblies then transitioned to slower linear growth (FIG. 1E). […] A simple mass-action kinetic model predicted the two-phase growth profiles and quantitatively reproduced the observed growth profiles (Calculation 1, FIGS. 7A-7E).

[2] = biological target: the molecule itself; test: time-lapse fluorescence microscopy of intracellular self-assembly in cultured rat hippocampal neurons

Question: Does B1 bind [1]?
Answer: binds

Question: Does B2 bind [2]?
Answer: binds
